Test results published in paper PMC8246649 (Biochemistry, 2021).
No end group written: not given here. *: point of attachment. Myristoyl = CCCCCCCCCCCCCC(=O)*

B1: FMNL1 peptide Myr-GNAAGSAEQPAGK-FAM (peptide)
peptide: Myristoyl-GNAAGSAEQPAGK(FAM)
B2: UNC119B, full-length, C-terminal His6 (natural protein)
chain: not shown

Key:
Experiment in all cases: fluorescence polarisation
[1] = biological target: UNC119A, full-length, C-terminal His6 (human, UniProt Q13432 1-240)
[2] = biological target: B2
[3] = biological target: B1

Myristoyl-GAAASRRRAK(FAM) [NSMF peptide Myr-GAAASRRRAK-FAM]
binding result [1]: binds
binding result [2]: binds

Myristoyl-GCTVSAEDK(FAM) [GNAI2 peptide Myr-GCTVSAEDK-FAM]
binding result [1]: binds
binding result [2]: binds

B1
binding result [1]: binds
binding result [2]: binds

Myristoyl-GAGASAEEKHSRK(FAM) [GNAT1 peptide Myr-GAGASAEEKHSRK-FAM]
binding result [1]: binds
binding result [2]: binds

Myristoyl-GNAAAAKKGK(FAM) [PKA peptide Myr-GNAAAAKKGK-FAM]
binding result [1]: binds
binding result [2]: binds

GCGCSSHPEDK (not fully specified; N-terminal myristoyl on Gly; FAM on the C-terminal Lys) [LCK peptide Myr-GCGCSSHPEDK-FAM]
Kd [2]: 0.37 nM

Myristoyl-GGAVSAGEDNDDK(FAM) [PCMTD1 peptide Myr-GGAVSAGEDNDDK-FAM]
Kd [1]: 5.25 nM
Kd [2]: 72.6 nM

B2
fold lower affinity than to UNC119A [3]: 9.5 fold

Myristoyl-GTASSLVSPAGGK(FAM) [NPHP3 peptide Myr-GTASSLVSPAGGK-FAM]
Kd [1]: 0.84 nM
Kd [2]: 0.17 nM
